Patent US20210030857A1 (NGM BIOPHARMACEUTICALS, published 2021)

T1: human beta klotho protein (soluble, used in Biacore) (human, UniProt Q86Z14 53-997, limits assumed)
T1 construct: also called HuKLB; huKLB
T1 sequence: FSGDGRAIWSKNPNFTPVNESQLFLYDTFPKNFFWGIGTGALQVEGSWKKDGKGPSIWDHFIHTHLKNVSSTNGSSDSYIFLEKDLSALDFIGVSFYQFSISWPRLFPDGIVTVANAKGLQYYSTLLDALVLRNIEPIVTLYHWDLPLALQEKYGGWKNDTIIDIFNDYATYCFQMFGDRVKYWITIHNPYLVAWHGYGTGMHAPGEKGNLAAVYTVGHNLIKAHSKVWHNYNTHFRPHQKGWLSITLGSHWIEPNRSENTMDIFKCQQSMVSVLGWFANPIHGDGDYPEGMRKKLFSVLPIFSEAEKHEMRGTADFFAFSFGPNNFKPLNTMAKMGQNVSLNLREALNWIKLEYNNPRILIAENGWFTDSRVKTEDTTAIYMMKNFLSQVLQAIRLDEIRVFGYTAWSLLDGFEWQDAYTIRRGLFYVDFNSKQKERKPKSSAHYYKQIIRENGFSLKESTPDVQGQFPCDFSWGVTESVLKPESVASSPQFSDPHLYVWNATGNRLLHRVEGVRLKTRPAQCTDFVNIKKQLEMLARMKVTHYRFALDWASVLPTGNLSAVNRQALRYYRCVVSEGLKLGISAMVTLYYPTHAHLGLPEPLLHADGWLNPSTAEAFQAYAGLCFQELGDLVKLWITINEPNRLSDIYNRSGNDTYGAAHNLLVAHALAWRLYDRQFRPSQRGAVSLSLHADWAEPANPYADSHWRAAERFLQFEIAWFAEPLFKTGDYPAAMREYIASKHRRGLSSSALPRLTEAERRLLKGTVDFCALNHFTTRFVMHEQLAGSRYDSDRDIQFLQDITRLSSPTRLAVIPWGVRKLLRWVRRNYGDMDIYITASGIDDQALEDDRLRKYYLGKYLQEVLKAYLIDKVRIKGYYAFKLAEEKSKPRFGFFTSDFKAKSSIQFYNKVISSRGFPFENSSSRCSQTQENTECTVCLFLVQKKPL

T2: cynomolgus monkey beta klotho protein (soluble, used in Biacore) (cynomolgus monkey (Macaca fascicularis), UniProt Q86Z14 53-996 (human entry), limits assumed)
T2 construct: Protein in solution; also called Cyno KLB; cyKLB
T2 chain: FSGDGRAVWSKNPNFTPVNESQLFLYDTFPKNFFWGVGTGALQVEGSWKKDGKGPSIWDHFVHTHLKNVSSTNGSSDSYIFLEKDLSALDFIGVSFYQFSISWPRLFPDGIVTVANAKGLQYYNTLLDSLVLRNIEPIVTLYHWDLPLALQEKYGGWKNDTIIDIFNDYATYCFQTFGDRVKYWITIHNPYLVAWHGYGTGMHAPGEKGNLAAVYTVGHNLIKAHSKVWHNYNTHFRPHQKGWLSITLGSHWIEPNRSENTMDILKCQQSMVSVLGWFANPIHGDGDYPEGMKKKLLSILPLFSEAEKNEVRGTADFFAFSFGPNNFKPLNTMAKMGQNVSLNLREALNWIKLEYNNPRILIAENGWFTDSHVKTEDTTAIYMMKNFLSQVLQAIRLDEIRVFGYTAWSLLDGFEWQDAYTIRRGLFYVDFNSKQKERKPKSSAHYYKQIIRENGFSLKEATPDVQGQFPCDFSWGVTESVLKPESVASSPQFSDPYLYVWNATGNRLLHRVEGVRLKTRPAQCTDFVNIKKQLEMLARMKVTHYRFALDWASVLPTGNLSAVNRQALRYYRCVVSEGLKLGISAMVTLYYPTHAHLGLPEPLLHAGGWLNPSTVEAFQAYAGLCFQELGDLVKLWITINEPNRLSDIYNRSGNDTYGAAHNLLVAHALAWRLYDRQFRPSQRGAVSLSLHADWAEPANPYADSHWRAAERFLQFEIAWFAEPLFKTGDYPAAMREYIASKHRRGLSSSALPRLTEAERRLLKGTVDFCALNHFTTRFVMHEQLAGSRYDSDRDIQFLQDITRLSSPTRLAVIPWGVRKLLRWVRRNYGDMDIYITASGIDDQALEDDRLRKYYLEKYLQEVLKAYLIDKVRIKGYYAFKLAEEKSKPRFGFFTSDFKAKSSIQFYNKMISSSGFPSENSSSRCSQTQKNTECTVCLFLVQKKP


Columns and labels:
[1] = target: T1, human beta klotho protein (soluble, …); assay: Biacore SPR, antibody captured on anti-mouse Fc, KLB as analyte (1.56-25 nM), 25 C
Procedure: (§1) Binding affinity measurements were also made in additional Biacore based assays. For example, equilibrium dissociation constant (KD) measurements were carried out with purified antibodies to evaluate their binding to human beta klotho and cyno beta klotho. As mentioned above, anti-mouse Fc antibody (Sigma-Aldrich, St. Louis, Mo.) was immobilized on all four flow cells of a CM5 chip using amine coupling reagents (GE Healthcare LifeSciences, Piscataway, N.J.). Purified antibodies were captured (˜100 RUs) on flow cells 2, 3 and 4 using flow cell 1 as a reference. This was followed by injection of different concentrations of human or cyno beta klotho (1.56 nM to 25 nM, two-fold dilutions in PBS-P buffer) at a flow rate of 70 μL/min and the binding kinetics were evaluated at 25° C.

[2] = target: T2, cynomolgus monkey beta klotho protein …; assay: as above
Procedure: as §1

[3] = target: T3, human beta klotho / human FGFR1c receptor complex on cells (human, UniProt Q86Z14 1-1044; P11362 22-822); assay: cell-based or functional assay
[4] = target: T3, human beta klotho / human FGFR1c …; assay: cell-based or functional assay; remark: listed apart in the source
[5] = target: cynomolgus beta klotho / human FGFR1c receptor complex on cells (cynomolgus monkey (Macaca …)); assay: cell-based or functional assay
Chain of cynomolgus beta klotho / human FGFR1c receptor complex on cells (cynomolgus monkey (Macaca …)) (chain, as listed by the source limits assumed, chain 1 of 2): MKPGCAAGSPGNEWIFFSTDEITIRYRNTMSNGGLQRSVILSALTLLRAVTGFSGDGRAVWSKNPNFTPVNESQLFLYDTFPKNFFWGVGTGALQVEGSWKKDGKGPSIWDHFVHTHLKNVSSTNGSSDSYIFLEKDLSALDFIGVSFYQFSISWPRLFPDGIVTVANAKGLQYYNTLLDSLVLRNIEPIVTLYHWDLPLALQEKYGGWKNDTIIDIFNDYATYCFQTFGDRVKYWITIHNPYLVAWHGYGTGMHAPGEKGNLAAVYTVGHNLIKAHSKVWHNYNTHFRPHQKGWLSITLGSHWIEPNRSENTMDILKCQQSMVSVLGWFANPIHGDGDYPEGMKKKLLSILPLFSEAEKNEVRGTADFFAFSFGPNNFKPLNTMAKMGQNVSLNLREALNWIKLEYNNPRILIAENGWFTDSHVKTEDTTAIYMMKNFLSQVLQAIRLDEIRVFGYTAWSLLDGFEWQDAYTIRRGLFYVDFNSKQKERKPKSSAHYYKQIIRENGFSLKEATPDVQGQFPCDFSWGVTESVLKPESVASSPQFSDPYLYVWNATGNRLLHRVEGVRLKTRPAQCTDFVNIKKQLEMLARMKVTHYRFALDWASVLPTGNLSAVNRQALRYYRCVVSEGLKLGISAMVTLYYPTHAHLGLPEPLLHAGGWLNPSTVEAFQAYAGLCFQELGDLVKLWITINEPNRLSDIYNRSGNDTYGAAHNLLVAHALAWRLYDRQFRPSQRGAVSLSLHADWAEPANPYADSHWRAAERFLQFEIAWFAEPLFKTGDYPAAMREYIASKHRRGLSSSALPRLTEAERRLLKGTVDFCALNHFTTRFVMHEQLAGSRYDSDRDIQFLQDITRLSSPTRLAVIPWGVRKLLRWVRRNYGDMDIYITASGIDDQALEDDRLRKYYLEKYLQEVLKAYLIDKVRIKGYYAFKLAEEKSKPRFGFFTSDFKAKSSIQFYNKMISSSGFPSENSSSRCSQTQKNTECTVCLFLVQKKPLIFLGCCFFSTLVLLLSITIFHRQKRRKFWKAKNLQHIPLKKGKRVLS
Chain of cynomolgus beta klotho / human FGFR1c receptor complex on cells (cynomolgus monkey (Macaca …)) (chain, as listed by the source limits assumed, chain 2 of 2): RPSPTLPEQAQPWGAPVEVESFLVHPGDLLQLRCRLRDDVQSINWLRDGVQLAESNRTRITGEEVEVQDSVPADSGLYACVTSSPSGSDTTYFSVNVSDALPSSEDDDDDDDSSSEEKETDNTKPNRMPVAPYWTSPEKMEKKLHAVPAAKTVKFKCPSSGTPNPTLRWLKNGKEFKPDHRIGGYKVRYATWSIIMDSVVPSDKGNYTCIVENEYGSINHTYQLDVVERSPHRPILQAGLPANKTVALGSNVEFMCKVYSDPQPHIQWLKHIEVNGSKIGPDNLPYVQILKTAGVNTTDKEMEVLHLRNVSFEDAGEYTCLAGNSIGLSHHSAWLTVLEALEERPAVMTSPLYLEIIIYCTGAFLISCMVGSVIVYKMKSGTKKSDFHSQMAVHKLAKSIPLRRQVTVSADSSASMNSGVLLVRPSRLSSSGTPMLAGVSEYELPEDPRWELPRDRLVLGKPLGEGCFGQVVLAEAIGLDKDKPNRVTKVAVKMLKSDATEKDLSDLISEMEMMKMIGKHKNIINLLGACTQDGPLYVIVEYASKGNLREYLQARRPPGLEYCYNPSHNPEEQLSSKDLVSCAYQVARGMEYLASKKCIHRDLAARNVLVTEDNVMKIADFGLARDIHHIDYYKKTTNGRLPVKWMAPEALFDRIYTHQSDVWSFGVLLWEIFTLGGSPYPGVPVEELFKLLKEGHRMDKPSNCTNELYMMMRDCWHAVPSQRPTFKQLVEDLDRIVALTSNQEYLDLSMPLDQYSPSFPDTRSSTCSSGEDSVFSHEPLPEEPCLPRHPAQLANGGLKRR

Kd [1] [pM] | Kd [2] [pM] | hAdip pERK assay EC50, Experiment - B [3] [nM] | HEK293 huKLB/R1c reporter assay EC50, Experiment - A [4] [pM] | HEK293 huKLB/R1c reporter assay EC50, Experiment - B [4] [pM] | HEK293 cynoKLB/R1c reporter assay EC50, Experiment - A [5] [pM] | HEK293 cynoKLB/R1c reporter assay EC50, Experiment - B [5] [pM] | Binder
890 | 3100 | > 67 |  |  |  |  | antibody 1C17 (antibody, V domains shown, Murine monoclonal antibody) VH: QVQLQESGPGLVKPSQSLSLTCSVTGYSITSGYYWNWIRQFPGNKLEWMGYINYDGNSNYTPSLKNRISITRDTSKNQFFLKLNSVTPEDTATYYCARKGAYYSNYDSFDVWGTGTTVTVSS VL: DIKMTQSPSSMYASLGERVTITCKASQDINSYLSWVQQKPGKSPKTLIYRANRLVDGVPSRFSGSGSGQDYSLTISSLEYEDMGIYYCLQYDEFPFTFGSGTKLEIK
260 | 440 | 0.89 | 600 | 78.3 | 347 | 465 | antibody 4P5 (antibody, V domains shown, Murine monoclonal antibody) VH: QVQLQQSGPELVKPGALVKISCKASGYTFTRYDINWVKKRPGQGLEWIGWIYPGDDSTKYNEKFKGKATLTADKSSSTAYMQLSSLTSENSAVYFCARSDYYGSRSFVYWGQGTLVTVSA VL: DILLTQSPASLAVSLGQRATISCRASKSVSTSGYSYMHWYQQKPGQPPKLLIYLASNLESGVPARFSGRGSGTDFTLNIHPVEEEDAATYYCHHSGELPYTFGGGTKLEIK
3300 | 3520 | > 67 | 527 |  | 2460 | > 10000 | antibody 3N20 (antibody, V domains shown, Murine monoclonal antibody) VH: QVQLQESGAELARPGASVKLSCKVSGYIFTNYGISWVKQRTGQGLEWIGEIYPRSGNTYYNEKFKGKATLTADMSSSTAYMDLRSLTSEDSAVYFCARHWDGVLDYFDYWGQGTSLTVSS VL: DIVMTQSPSSLSVSAGEKVTMSCKSSQSLLNSGNQKNYLAWYQQKPGQPPKLLIYGASTRESGVPDRFTGSGSGTDFTLTISSVQAEDLAVYYCLNDHSYPFTFGAGTKLELK

Continued, binder first:

Binder | Kd [1] [pM] | Kd [2] [pM] | hAdip pERK assay EC50, Experiment - B [3] [nM] | HEK293 huKLB/R1c reporter assay EC50, Experiment - A [4] [pM] | HEK293 huKLB/R1c reporter assay EC50, Experiment - B [4] [pM] | HEK293 cynoKLB/R1c reporter assay EC50, Experiment - A [5] [pM] | HEK293 cynoKLB/R1c reporter assay EC50, Experiment - B [5] [pM]
antibody 5F7 (antibody, V domains shown, Murine monoclonal antibody) VH: QVQPQESGPELVKPGALVKISCKASGYTFTRYDINWVKQRPGQGLEWIGWIYPGDISTKYNEKFKGKATLTADKSSSTAYMQLNSLTSENSAVYFCARSDYYGSRSFVYWGQGTLVTVSA VL: DIVLTQSPASLAVSLGQRATISCRASKSVSTSGYSYMHWYQQKPGQPPKLLIYLASNLESGVPARFSGSGSGTDFTLNIHPVEEEDAATYYCQHSRELPYTFGGGTKVEIK | 1700 | 2500 | > 67 |  |  |  | 
antibody 5H23 (antibody, V domains shown, Murine monoclonal antibody from hybridoma; also called 5H23-Alexa647 (labelled form)) VH: QVQLQQSGPELVKPGALVKISCKASGYTFTSYDINWVKQRPGQGLEWIGWIYPGDGSTKYNEKFKGKATLTADKSSRTAYMQLSSLTSENSAVYFCARSDYYGSRSFAYWGQGTLVTVSA VL: DIVLTQSPASLAVSLGQRATISCRASKSVSTSGYVYMHWNQQKPGQPPKLLIYLASYLESGVPARFSGSGSGTDFTLNIHPVEEEDAAIYYCQHSRDLTFPFGGGTKLEIK |  | 720 | 1.66 | 102 | 34.2 | 165 | 218
antibody 5C23 (antibody, V domains shown, Murine monoclonal antibody) VH: QVQPQESGPELVKPGALVKISCKASGYTFTRYDINWVKKRPGQGLEWIGWIYPGDGSTKYNEKFEGKATLTADKSSSTAYMQLSSLTSENSAVYFCARSDYYGSRSFVYWGQGTLVTVSA VL: DIVLTQSPDSLTVSLGQRATISCRASKSVSTSGYSYMHWYQQKPGQPPKLLIYLASNLESGVPARFSGSGSGTDFTLNIHPVEEEDAATYYCQHSRELPYTFGGGTKLEIK | 1200 | 2400 | > 67 |  |  |  | 
antibody 2L12 (antibody, V domains shown, Murine monoclonal antibody) VH: QVQLQQSGPELVKPGALVKISCKASGYTFTRYDINWVKKRPGQGLEWIGWIYPGDDSTKYNEKFKGKATLTADKSSSTAYMQLSSLTSENSAVYFCARSDYYGSRSFVYWGQGTLVTVSA VL: DIVLTQSPASLPVSLGQRATISCRASKSVSTSGYSYLHWYQQKPGQPPKLLIYLASNLESGVPARFSGSGSGTDFTLNIHPVEEEDAATYYCQHSGELPYTFGGGTKLEIK | 220 | 1420 | 1.23 | 373 |  | 260 | 410
antibody 3L3 (antibody, V domains shown, Murine monoclonal antibody) VH: QVQPQESGPELVKPGTLVKISCKASGYTFTSYDINWVKQRPGQGLEWIGWIYPGDGSPKYDEKFKGKATLTADKSSSTAYMQLSSLTSENSAVYFCARSDYYGSRSFVYWGQGTLVTVSA VL: DIVLTQSPASLAVSLGQRATISCRASKSVSTSGYSYVHWYQQKPGQPPKLLIYLASNLESGVPARFSGRGSGTDFTLNIHPVEEEDAATYYCQHSGELPYTFGGGTKLEIK | 1140 | 2200 | ~30 | 773 |  | 3580 | 1670
antibody 1D19 (antibody, V domains shown, Murine monoclonal antibody) VH: QVQPQESGPELVKPGALVKISCKASGYTFTRYDINWMKQRPGQGLEWIGWIYPGDSSTKFNENFKDKATLTADKSSSTAYMQLSSLTSENSTVYFCARSDYYGSRSFTYWGQGTLVTVSA VL: DIVLTQSPASLAVSLGQRATISCRASKSVSTSGYSYMHWYQQKPGQPPKLLIYLASNLESGVPARFSGSGSGTDFTLNIHPVEEEDAATYYCQHSRELPYTFGGGTKLEIK | 1250 | 2900 | > 67 | 620 |  |  | 954
